Results on seven molecules are retold here after patent US20250115664A1 (Bristol-Myers Squibb, published 2025).

The target of assay [1] is T1, human TIM3 on cells (transfected CHO cells, activated human T cells, Th1 cells, TILs) (human, UniProt Q8TDQ0 22-300).
T1 construct: also called hTIM3
Kind of assay: flow cytometry, human TIM3 positive cells (activated human T cells per paragraph 648), GMFI (PE); EC50 unit inferred, unit taken from the axis label ug/mL.

Assay [2] deals with T2, Human TIM3-IgV (Example 22) (human, UniProt Q8TDQ0 22-130).
T2 construct: also called hTim3-IgV; hTIM3-IgV
Kind of assay: SPR Biacore T200, 37 C; antibody captured on anti-hFc chip, TIM3 protein as analyte, single cycle kinetics, 1:1 model.

For assay [3], the target named is T1, human TIM3 on cells (transfected CHO …). The experiment in a line: saturation binding of 125I-labeled antibody to CHO cells with human TIM3 (CHOhu TIM3 25K), table row Kd, column Total; the cell has no unit, nM is taken from the concentration axis.
Assay [4] addresses T3, cynomolgus TIM3 on cells (transfected CHO cells, activated cyno T cells, cyno spleen) (cynomolgus).
T3 construct: also called cyno TIM3
T3 chain: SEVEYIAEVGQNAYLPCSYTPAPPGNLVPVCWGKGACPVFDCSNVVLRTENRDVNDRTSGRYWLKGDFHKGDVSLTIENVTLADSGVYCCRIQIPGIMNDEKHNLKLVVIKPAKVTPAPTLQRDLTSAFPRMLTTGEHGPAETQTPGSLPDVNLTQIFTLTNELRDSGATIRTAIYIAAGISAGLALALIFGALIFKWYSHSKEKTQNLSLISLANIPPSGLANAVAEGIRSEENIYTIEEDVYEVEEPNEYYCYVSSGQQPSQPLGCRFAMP
Kind of assay: saturation binding of 125I-labeled antibody to CHO cells with cyno TIM3 (CHOcyno TIM3 25K), table row Kd, column Total; the cell has no unit, nM is taken from the concentration axis.

Assay [5] deals with T1, human TIM3 on cells (transfected CHO …). Kind of assay: saturation binding of 125I-labeled antibody to CHO cells with human TIM3 (CHOhu TIM3 25K), table row Kd, column Specific Binding; the cell has no unit, nM is taken from the concentration axis and the box below.

B1: anti-TIM3 monoclonal antibody 14H7 (antibody, V domains shown)
VH: QVHLVESGGGLVKPGGSLRLSCTAFSDYYMSWIRQAPGKGLEWLSYISNSGSIIYYADSVKGRFTISRDNAKNSVYLQMNSLRAEDTAVYYCARGRIGFFDYWGPGTLVTVSS
VL: not shown
B1 showed an EC50 in assay [1] of 0.0139 µg/mL.

B2: TIM3.24 (14H7) (antibody, V domains shown)
VH: QVHLVESGGGLVKPGGSLRLSCTAFSDYYMSWIRQAPGKGLEWLSYISNSGSIIYYADSVKGRFTISRDNAKNSVYLQMNSLRAEDTAVYYCARGRIGFFDYWGPGTLVTVSS
VL: not shown
notes: also called 14H7/TIM3.24
In assay [2], B2 returned an equilibrium dissociation constant (Kd) of 14 nM, a koff of 0.011 s⁻¹ and a kon of 780000 M⁻¹ s⁻¹.

B3: anti-TIM3 monoclonal antibody 23B3 (antibody, V domains shown)
VH: QVQLVGSGGGLVKPGGSLRLSCAASGFTFSDYYMSWIRQAPGKGLEWVSFISGSGSIIYYADSVKGRFTISRDNAKNSLDLQMNSLRAEDTAVYYCARDGMVRGMNFYGMDVWGQGTTVTVSS
VL: not shown
As for B3, the response in assay [1] was half-maximal at 0.0229 µg/mL (EC50).

B4: TIM3.25 (23B3 VH-G6E-D79Y) (antibody, V domains shown)
VH: QVQLVESGGGLVKPGGSLRLSCAASGFTFSDYYMSWIRQAPGKGLEWVSFISGSGSIIYYADSVKGRFTISRDNAKNSLYLQMNSLRAEDTAVYYCARDGMVRGMNFYGMDVWGQGTTVTVSS
VL: not shown
Take B4: in assay [2], the affinity, expressed as Kd, was 2.2 nM; the dissociation rate constant (koff) is 0.0013 s⁻¹; the kon worked out at 600000 M⁻¹ s⁻¹.

B5: anti-TIM3 monoclonal antibody 13A3 (antibody, V domains shown)
VH: QLQLQESGPGLVKPSETLSLTCTVSGGSISSRSYYWGWIRQPPGKGLEWIGSIYYSGFTYYNPSLKSRVTISVDTSKNQFSLKLSSVTAADTAVYYCATGGPYGDYAHWFDPWGQGTLVTVSS
VL: not shown
notes: also called 13A3-g4
For B5, the EC50 in assay [1] came out at 0.0116 µg/mL.

B6: TIM3.18·IgG1.3 (antibody, V domains shown)
VH: QLQLQESGPGLVKPSETLSLTCTVSGGSISSRSYYWGWIRQPPGKGLEWIGSIYYSGFTYYQPSLKSRVTISVDTSKNQFSLKLSSVTAADTAVYYCATGGPYGDYAHWFEPWGQGTLVTVSS
VL: not shown
notes: also called TIM3.18 (13A3) IgG1.3f (N60Q/D101E)
For the molecule B6, the Kd came out at 0.278 nM in assay [3], 0.581 nM in assay [4] and 0.262 nM in assay [5].

B7: Tim3.18 (13A3 VH-N60Q-D101E), constant region not stated (antibody, V domains shown)
VH: QLQLQESGPGLVKPSETLSLTCTVSGGSISSRSYYWGWIRQPPGKGLEWIGSIYYSGFTYYQPSLKSRVTISVDTSKNQFSLKLSSVTAADTAVYYCATGGPYGDYAHWFEPWGQGTLVTVSS
VL: not shown
B7 returned a dissociation constant Kd in assay [2] of 7.1 nM.
